This series deals with the molecule itself. The series is described as follows: non-reduced SDS-PAGE; SEC-purified denatured monomeric MB109 refolded by rapid dilution (CHAPS, NaCl, EDTA, GSH/GSSG, Tris-HCl, 4°C, 7 days); supernatants run on non-reduced 12% SDS-PAGE; disulfide-linked dimer.

B1: MB109 (E. coli-derived mature domain of human bone morphogenetic protein-9, refolded functional dimer) (ligand)
chain: MSAGAGSHCQKTSLRVNFEDIGWDSWIIAPKEYEAYECKGGCFFPLADDVTPTKHAIVQTLVHLKFPTKVGKACCVPTKLSPISVLYKDDMGVPTLKYHYEGMSVAECGCR
notes: engineered first methionine (translational start) directly before Ser320; mature domain of human BMP-9, Ser320-Arg429 (110 amino acids) of the 429-residue polypeptide; Disulfide-linked homodimer of the mature domain; pET21a between NdeI and XhoI with a 3' stop codon; also called hBMP-9 mature domain; human BMP-9
B1: the “stoichiometry N” value was found to be 2.

A word on the stoichiometry N: it is the number of molecules, sites or subunits per partner or assembly.

(Values after publication PMC3936849, “MB109 as bioactive human bone morphogenetic protein-9 refolded and purified from E. coli inclusion bodies” (Microbial Cell Factories, 2014).)
